This note sets out measurements from patent US20110243929A1 (MEDLMMUNE, published 2011).

Where “and” joins values, the source holds several entries; their conditions need not be identical. Identical values can stand only once.

What is called Kd is the free concentration of one partner at which half of the binding sites on the other are occupied at equilibrium, for simple one-to-one binding.

Test [1] deals with T1, cynomolgus ICOS (cynomolgus, UniProt A0A2K5TQR6 21-168).
T1 sequence: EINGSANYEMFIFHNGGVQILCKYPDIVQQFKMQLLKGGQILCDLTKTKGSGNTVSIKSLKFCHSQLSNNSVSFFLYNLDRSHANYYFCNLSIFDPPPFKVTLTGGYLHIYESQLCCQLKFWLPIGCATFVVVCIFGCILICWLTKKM
Put plainly: cell-based or functional assay.

The target of test [2] is T1, cynomolgus ICOS. Put plainly: cell-based or functional assay. This is another data set of the same source.
Test [3] concerns the target T2, Human FcγRIIa (human, UniProt P12318).
T2 construct: extracellular domain
T2 sequence (extracellular domain, looked up): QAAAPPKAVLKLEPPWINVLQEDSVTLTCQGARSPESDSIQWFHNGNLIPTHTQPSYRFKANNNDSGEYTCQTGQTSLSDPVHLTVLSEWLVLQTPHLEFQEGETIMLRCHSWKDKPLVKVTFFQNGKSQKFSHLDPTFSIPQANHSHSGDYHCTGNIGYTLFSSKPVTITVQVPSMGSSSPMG
Briefly: BIAcore 3000; IgG immobilized on CM5 chip, soluble FcγR extracellular domain injected; equilibrium 1:1 binding isotherm. The protocol:
(§1) The measurements are performed according to standard protocols. Briefly, all IgGs are immobilized onto separate flow cells of two CM5 sensor chips using standard amino coupling chemistry as recommended by the manufacturer. […] Stock solutions of the recombinantly expressed extracellular domains of all FcγRs at either 4000 or 16000 nM are prepared and then serially diluted down to the desired concentrations using the instrument buffer (50 mM HBS buffer containing 0.01 M HEPES, pH 7.4, 0.15 M NaCl, 3 mM EDTA and 0.005% P-20). Duplicate injections of each concentration of FcγR ared then injected over all of the IgG surfaces at a flow rate of 5 μL/min. Binding data are collected for approximately […], followed by a 30 sec. pulse of 5 mM HCl between injections to regenerate the IgG surfaces. Several buffer injections are also interspersed throughout the injection series. One of these buffer injections is used along with the reference cell data to correct the raw data sets. After all binding data is collected, individual data sets are averaged for each y concentration, then fit to a 1:1 binding isotherm from which the equilibrium binding constants, KD, are derived. Analysis is carried out using the BIAevaluation software.
Background: SPR reads the build-up and loss of mass on a sensor chip optically.

The target in test [4] is T3, Human FcγRIIb (human, UniProt P31994).
T3 construct: extracellular domain; Only the IC9G1-aFuc cell is filled
T3 sequence (extracellular domain, looked up): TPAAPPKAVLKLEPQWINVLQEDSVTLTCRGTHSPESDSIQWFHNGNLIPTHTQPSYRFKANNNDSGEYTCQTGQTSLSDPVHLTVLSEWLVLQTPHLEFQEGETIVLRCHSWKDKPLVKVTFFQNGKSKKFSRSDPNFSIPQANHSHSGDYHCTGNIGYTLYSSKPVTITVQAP
The test is described as above. The procedure: as §1

The target in test [5] is T4, cynomolgus FcγRIIIA, recombinantly expressed extracellular domain (cynomolgus, UniProt Q8SPW2 17-208).
T4 construct: extracellular domain; also called cynomolgus FcgRIIIa
T4 sequence (Q8SPW2 17-208): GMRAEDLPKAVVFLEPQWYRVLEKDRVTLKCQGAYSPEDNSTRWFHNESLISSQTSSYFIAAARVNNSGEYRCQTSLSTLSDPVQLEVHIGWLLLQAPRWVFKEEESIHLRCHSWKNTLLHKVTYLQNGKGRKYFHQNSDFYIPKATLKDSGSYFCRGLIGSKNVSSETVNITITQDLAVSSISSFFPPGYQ
The test is described as above. The protocol:
as §1

Test [6] deals with T5, Cynomolgus FcγRIIb (Macaca fascicularis, UniProt A0A140HDP4).
T5 construct: extracellular domain
T5 sequence (extracellular domain): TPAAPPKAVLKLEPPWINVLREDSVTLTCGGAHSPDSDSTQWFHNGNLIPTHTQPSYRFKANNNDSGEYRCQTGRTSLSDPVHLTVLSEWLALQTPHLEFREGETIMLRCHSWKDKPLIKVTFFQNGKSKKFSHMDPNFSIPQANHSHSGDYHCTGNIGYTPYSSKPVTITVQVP
Described as above. The protocol:
as §1

The target in test [7] is T6, Cynomolgus FcγRIIa (Macaca fascicularis, UniProt A0A140HDN0).
T6 construct: extracellular domain
T6 sequence (extracellular domain): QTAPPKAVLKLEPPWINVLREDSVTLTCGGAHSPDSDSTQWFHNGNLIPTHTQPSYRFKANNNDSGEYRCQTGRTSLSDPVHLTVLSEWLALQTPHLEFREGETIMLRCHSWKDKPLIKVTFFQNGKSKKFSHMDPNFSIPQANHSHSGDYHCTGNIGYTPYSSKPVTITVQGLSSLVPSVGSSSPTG
The test is described as above. The procedure:
as §1

Test [8] concerns the target T1, cynomolgus ICOS. Put plainly: cell-based or functional assay. The source holds these as a separate data set.
Test [9] has as its target T7, human ICOS (human, UniProt Q9Y6W8 21-199).
T7 sequence: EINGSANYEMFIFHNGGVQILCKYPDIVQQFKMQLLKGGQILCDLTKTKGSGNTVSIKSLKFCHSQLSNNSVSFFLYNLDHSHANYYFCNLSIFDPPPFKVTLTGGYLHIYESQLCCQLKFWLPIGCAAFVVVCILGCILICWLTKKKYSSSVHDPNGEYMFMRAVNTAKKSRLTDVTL
Put plainly: cell-based or functional assay.

B1: IC9G1-aFuc (afucosylated IC9G1 antibody composition) (antibody, human IgG1, kappa)
heavy: not shown
light: DIQMTQSPSSVSASVGDRVTITCRASQGISRLLAWYQQKPGKAPKLLIYVASSLQSGVPSRFSGSGSGTDFTLTISSLQPEDFATYYCQQANSFPWTFGQGTKVEIKRTVAAPSVFIFPPSDEQLKSGTASVVCLLNNFYPREAKVQWKVDNALQSGNSQESVTEQDSKDSTYSLSSTLTLSKADYEKHKVYACEVTHQGLSSPVTKSFNRGEC
modifications: chain 1 pos 305 (Asn297, EU numbering): complex N-glycoside-linked sugar chain without fucose on the reducing-end N-acetylglucosamine, written N
notes: Same polypeptides as IC9G1 (JMab-136 VH/VK, human IgHγ1 constant region, kappa); also called IG9G1-aFuc; ICG91-aFuc; copies: 2 + 2
Regarding B1, the “EC50 of ADCC (% cytotoxicity; human NK effector cells, isolated cynomolgus mesenteric lymph node T cells as targets)” value in [1] was determined as 0.0024 µg/mL. The “EC50 of ADCC (% cytotoxicity; human NK effector cells, isolated cynomolgus splenic T cells as targets)” value in test [2] turned out to be 0.00205 µg/mL. For the same molecule, the Kd stood at 2010 nM in [3]; 14000 nM in [4]; 21 nM in test [5]; 1950 nM in test [6]; 3140 nM in [7]. The “EC50 of ADCC activity (isolated human NK effector cells, 2:1, overnight)” value in [8] is 0.0146 nM and 0.0171 nM; in test [9], 0.0082 nM.

B2: IC9G1 (anti ICOS antibody comprising JMab-136 VH and VL domains and the IgHγ1 constant region) (antibody, human IgG1, kappa)
heavy: not shown
light: DIQMTQSPSSVSASVGDRVTITCRASQGISRLLAWYQQKPGKAPKLLIYVASSLQSGVPSRFSGSGSGTDFTLTISSLQPEDFATYYCQQANSFPWTFGQGTKVEIKRTVAAPSVFIFPPSDEQLKSGTASVVCLLNNFYPREAKVQWKVDNALQSGNSQESVTEQDSKDSTYSLSSTLTLSKADYEKHKVYACEVTHQGLSSPVTKSFNRGEC
notes: The rest is a human IgHγ1 constant region (IgG1) and a human IgLK (kappa) constant region; copies: 2 + 2
On to B2, for which the “EC50 of ADCC (% cytotoxicity; human NK effector cells, isolated cynomolgus mesenteric lymph node T cells as targets)” value in test [1] was 0.0278 µg/mL. In addition, in test [2], the “EC50 of ADCC (% cytotoxicity; human NK effector cells, isolated cynomolgus splenic T cells as targets)” value was determined as 0.0331 µg/mL. For the same molecule, the Kd in [3] was 3310 nM; in test [5] it was 394 nM; in test [6] it was 2370 nM; in test [7] it was 5280 nM. Also, the “EC50 of ADCC activity (isolated human NK effector cells, 2:1, overnight)” value in test [8] was 0.236 nM and 0.198 nM; in test [9] it was 0.0604 nM.
